In the experiment the target is ComFB signaling protein (Slr1970) (Synechocystis). The experiment in a line: SEC-MALS; size exclusion chromatography coupled to multiangle light scattering of ComFB; species of 40.5 kDa against theoretical monomer mass 20.4 kDa.

Turning to “ComFB signaling protein (Slr1970) (natural protein)”, the stoichiometry N amounted to 2.

The values are drawn from article PMC12313861.
